Experimental findings from publication PMC12153317 (2025) are described below.

Changes are numbered by the printed parent chain. “And” between values parts separate entries of the source, which are not always exact repeats. Equal entries are not always repeated.

B1: S8V1-157 recombinant human IgG1 (antibody, V domains shown)
VH: EVQLVQSGAEVKKPGASVKVSCKVSGYRLTALSMHWVRQAPGKGLEWMGGFDPEEDETIYAQNFQGRVTLTEDTSTDTVYMELSSLRSEDTGVYYCATLMGANPFDYWGQGTLIIVSG
VL: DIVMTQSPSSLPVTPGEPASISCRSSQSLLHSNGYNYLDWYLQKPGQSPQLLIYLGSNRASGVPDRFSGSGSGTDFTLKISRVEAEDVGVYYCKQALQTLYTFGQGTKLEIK
B2: S1V2-65 recombinant human IgG1 (antibody, V domains shown)
VH: EVQLVQSGAEVKKPGETLKISCKGSGYSFTNYWIGWVRQMPGKGLECMGIIDPSDSETRYSPSFQGQVTISADKSTNTAFLQWSTVKASDTAIYYCARLGYGDSPPFDFWGQGAGVTVS
VL: MTQSPLSLPVTPGESASISCRSSQSLLYSNGYNHLDWYVQKPGQPPQLLIFLGSTRASGVSDRVSGSGSGTDFTLQISRVEAEDVGVYYCMQALETPYTFGQGTKLEVK
B3: S1V2-60 recombinant human IgG1 (antibody, V domains shown)
VH: EVQLVQSGAEVSEPGKSLKISCKGSAYSFINYWIGWVRQMPGKGLECMGIIDPSDSETRYNPSFEGHVLISADTSINTAYLQWSSLRASDTAMYYCVRLGYGDSPPFDSWGQGTLVTVS
VL: B2 VL with L6F, S15P, V39Q, T55R, S61P, V64F, Q76K, E95Q, T96D, V108I
B4: S1V2-17 recombinant human IgG1 (antibody, V domains shown)
VH: QVKLVQSGAEVKKPGASVKVSCKVSGYTLSELSIHWVRQVPGKGLESMGGFDPEDDGAIYAESFQGRVTMTEDTSTDTSFMELHSLRSEDTAVYYCVTWLVGTTVAAYWGQGTLVTVS
VL: MTQTPFSLPVTPGEPASISCRSSQSLLYSNGYNHLDWYLQKPGQSPQLLIYLGSYRASGVPDRFSGSGSGTDFTLKISRVEADDVGVYYCMQALQAPRTFGQGTKVEIK
B5: FI6v3 recombinant human IgG (antibody, V domains shown)
VH: QVQLVESGGGVVQPGRSLRLSCAASGFTFSTYAMHWVRQAPGKGLEWVAVISYDANYKYYADSVKGRFTISRDNSKNTLYLQMNSLRAEDTAVYYCAKDSQLRSLLYFEWLSQGYFDYWGQGTLVTVSS
VL: not shown

One assay deals with pandemic H2 HA (soluble HA ectodomain, ELISA) (influenza A virus). Briefly: ELISA. In general terms: In an ELISA, binding on a coated surface is turned into a signal by an enzyme label.
The Kd is a measure of binding affinity in units of concentration. The low end stands for tighter binding, the high end for weaker binding. Consider B1, for which the dissociation constant (Kd) stood at 2500 pM.
Same read-out and setting: the figure for B2 is 10000 pM; for B3 it is 8800 pM.
In turn, B4 returned a dissociation constant Kd of 6500 pM. This Kd and that of the molecule before are within 1.5-fold of each other.
On the same count and under the same terms, next, B5: 360 pM.

The target of another assay is pre-pandemic H5 HAs (soluble HA ectodomains, ELISA) (influenza A virus). Briefly: ELISA.
As to B1, the Kd was below 100 pM.
Take B2: the dissociation constant Kd came out at 100 pM.
With B3, the Kd was 100 pM.
Still for that read-out and setting: the figure for B4 is 140 pM.
For B5, the equilibrium dissociation constant (Kd) turned out to be 440 pM.

The next assay has as its target specific HAs not engaged in ELISA (soluble HA ectodomains) (influenza virus). Nature of the assay: ELISA.
B1 registered an equilibrium dissociation constant (Kd) above 100000 pM.
Same read-out and setting: next, B2: above 100000 pM.
On the same count and under the same terms, next, B3: above 100000 pM.
As to B4, the Kd was above 100000 pM.

For another assay, the target named is all seasonal H3s (1968–2020) assayed (soluble HA ectodomains, ELISA) (influenza A virus). Briefly: ELISA.
As to B2, the dissociation constant (Kd) was 160 pM and 210 pM and 250 pM.
